T1: mouse IL-2Rγ, recombinant protein (mouse, UniProt P34902 23-263, limits assumed)
T1 sequence (looked up): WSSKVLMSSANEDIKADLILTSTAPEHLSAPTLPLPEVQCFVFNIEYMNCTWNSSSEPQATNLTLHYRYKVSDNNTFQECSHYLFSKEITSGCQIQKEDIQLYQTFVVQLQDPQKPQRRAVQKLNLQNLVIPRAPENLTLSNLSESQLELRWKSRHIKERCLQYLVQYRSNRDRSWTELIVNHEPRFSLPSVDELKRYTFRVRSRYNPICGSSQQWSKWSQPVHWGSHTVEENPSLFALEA

T2: human common cytokine receptor γ-chain (γc; IL-2Rγ; CD132), recombinant protein (human, UniProt P31785 23-262)
T2 construct: also called human IL-2R subunit CD132
T2 sequence: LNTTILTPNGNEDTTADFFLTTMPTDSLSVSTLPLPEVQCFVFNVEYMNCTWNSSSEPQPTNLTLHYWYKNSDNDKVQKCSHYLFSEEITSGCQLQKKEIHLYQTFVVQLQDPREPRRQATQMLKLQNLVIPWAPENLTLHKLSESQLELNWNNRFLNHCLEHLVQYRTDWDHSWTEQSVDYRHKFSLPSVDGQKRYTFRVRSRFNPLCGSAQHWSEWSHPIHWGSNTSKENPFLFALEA

T3: cynomolgus monkey IL-2Rγ/CD132 subunit (cynomolgus monkey, UniProt A0A2K5VGJ6 23-262)
T3 construct: also called Cyno IL-2R subunit
T3 sequence: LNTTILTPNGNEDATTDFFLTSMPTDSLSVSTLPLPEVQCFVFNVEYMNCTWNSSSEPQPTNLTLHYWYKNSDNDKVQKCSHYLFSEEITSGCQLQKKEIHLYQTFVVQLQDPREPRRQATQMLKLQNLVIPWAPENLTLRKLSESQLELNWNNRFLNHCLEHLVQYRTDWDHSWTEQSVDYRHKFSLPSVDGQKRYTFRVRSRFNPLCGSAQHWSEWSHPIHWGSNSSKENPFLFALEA

B1: 31-MP04E03 VHH (periplasmic extract) (VHH)
VHH: QVQLVESGGGLVQAGGSLRLSCTGYGGAFTGYALGWFRQAPGKEREFVARINWSGSFTYYASSVKGRFTISRDNAKNTMYLQMNNLKPEDTAVYYCAADNPSTLATDYDNWGQGTQVTVSS
notes: soluble VHH in periplasmic extract
B2: 32-MP04A08 VHH (periplasmic extract) (VHH)
VHH: QVQLVESGGGLVQAGGSLRLSCAASGRTFGSTAVGWFRQVPGKEREFVSAINRSGSATTYADSVKGRFTISRDNAKNTVYLQMNSLTPEDTGVYYCAADSLPYGRPYYFQRSAGEYDYWGQGTQVTVSS
notes: as for B1
B3: 32-MP04A08 VHH-hFc, monospecific bivalent (Fc fusion)
chain: QVQLVESGGGLVQAGGSLRLSCAASGRTFGSTAVGWFRQVPGKEREFVSAINRSGSATTYADSVKGRFTISRDNAKNTVYLQMNSLTPEDTGVYYCAADSLPYGRPYYFQRSAGEYDYWGQGTQVTVSS
notes: IgG1 Fc LALA-PG; not shown: human IgG1 CH2 and CH3 domains (Fc)
B4: 29-MP04H02 VHH (periplasmic extract) (VHH)
VHH: QVQLVESGGGLVQAGGSLRLACVASGLTFDNYYMGWFRQAPGKEREFVAGIIWNGDHTAYADSIKGRFTISRDNAKNTAYLRMNSLKPEDTAVYYCAATFWIERATTPDIGQYAYWGQGTQVTVSS
notes: as for B1
B5: 29-MP04H02 VHH-hFc, monospecific bivalent (Fc fusion)
chain: QVQLVESGGGLVQAGGSLRLACVASGLTFDNYYMGWFRQAPGKEREFVAGIIWNGDHTAYADSIKGRFTISRDNAKNTAYLRMNSLKPEDTAVYYCAATFWIERATTPDIGQYAYWGQGTQVTVSS
notes: as for B3
B6: 35-MP07G01 VHH-hFc, monospecific bivalent (Fc fusion)
chain: QVQLQESGGGLVQGGGSLRLSCAASGGIFSSYAMGWFRQAPGKEREFVAAISRSGRSTNYADSVKGRFTISRDNAKSTVYLQMNSLKPEETAVYYCAAGRYYNSAYDPSPGDFGSWGHGTQVTVSS
notes: as for B3
B7: 36-MP07F02 VHH (periplasmic extract) (VHH)
VHH: QVQLVESGGGLVQAGGSLRLSCAASGRTLSRYAMGWFRQAPGSEREFVAASSWGGDTFYADSVEGRFTFSRDNAKNAVYLQMNSLQPEDTAAYYCAAAPTSFPTTAYSSSNSYAYWGQGTQVTVSS
notes: as for B1
B8: 36-MP07F02 VHH-hFc, monospecific bivalent (Fc fusion)
chain: QVQLVESGGGLVQAGGSLRLSCAASGRTLSRYAMGWFRQAPGSEREFVAASSWGGDTFYADSVEGRFTFSRDNAKNAVYLQMNSLQPEDTAAYYCAAAPTSFPTTAYSSSNSYAYWGQGTQVTVSS
notes: as for B3
B9: 37-MP07F09 VHH (periplasmic extract) (VHH)
VHH: QVQLVESGGGLVQAGGSLRLSCAASGRTLSRYAMGWFRQAPGKEREYVAIDSWGGDTFYADSVEGRFTFSRDNAKNEVYLQMNSLQPEDTAVYYCAGAPTSFATTAYSSSNSYRYWGQGTQVTVSS
notes: as for B1
B10: 37-MP07F09 VHH-hFc, monospecific bivalent (Fc fusion)
chain: QVQLVESGGGLVQAGGSLRLSCAASGRTLSRYAMGWFRQAPGKEREYVAIDSWGGDTFYADSVEGRFTFSRDNAKNEVYLQMNSLQPEDTAVYYCAGAPTSFATTAYSSSNSYRYWGQGTQVTVSS
notes: as for B3
B11: 28-MP04D02 VHH (periplasmic extract) (VHH)
VHH: QVQLVESGGGLVQAGGSLRLSCAASGRTLSRYAMGWFRQAPGKEREFVTANSWGGDTYYADSVQGRFTFSRDNAKNTVYLQMNSLQPEDTAVYYCAAAPTSFATTAYSGSNSYAYWGQGTQVTVSS
notes: as for B1
B12: 34-MP04A12 VHH-hFc, monospecific bivalent (Fc fusion)
chain: QVQLVESGGGLVQAGSSLRLSCAASGRTLSRLAMGWFRQAPGKEREFVAVNSWGGDTFYADSVEGRFTYSRDNAKSAVYLQMNSLQPEDTAVYYCAAAPTSFATTAYSSSNSYAYWGQGAQVTVSS
notes: as for B3
B13: 34-MP04A12 VHH (periplasmic extract) (VHH)
VHH: QVQLVESGGGLVQAGSSLRLSCAASGRTLSRLAMGWFRQAPGKEREFVAVNSWGGDTFYADSVEGRFTYSRDNAKSAVYLQMNSLQPEDTAVYYCAAAPTSFATTAYSSSNSYAYWGQGAQVTVSS
notes: as for B1
B14: 38-MP07A11 VHH-hFc, monospecific bivalent (Fc fusion)
chain: QVQLVESGGGLVQAGGSLRLSCAASGRSLSRDAMGWFRQAPGKEREFVAVMSWGGDTFYTDSVEGRFTFSRDNAKNAVYLEMNDLQPEDTAVYYCAAAPTSFATTAYSSSNSYSYWGRGTQVTVSS
notes: as for B3
B15: 28-MP04D02 VHH-hFc, monospecific bivalent (Fc fusion)
chain: QVQLVESGGGLVQAGGSLRLSCAASGRTLSRYAMGWFRQAPGKEREFVTANSWGGDTYYADSVQGRFTFSRDNAKNTVYLQMNSLQPEDTAVYYCAAAPTSFATTAYSGSNSYAYWGQGTQVTVSS
notes: IgG1 Fc LALA-PG; also called clone 28; not shown: human IgG1 CH2 and CH3 domains (Fc)
B16: 38-MP07A11 VHH (periplasmic extract) (VHH)
VHH: QVQLVESGGGLVQAGGSLRLSCAASGRSLSRDAMGWFRQAPGKEREFVAVMSWGGDTFYTDSVEGRFTFSRDNAKNAVYLEMNDLQPEDTAVYYCAAAPTSFATTAYSSSNSYSYWGRGTQVTVSS
notes: as for B1
B17: 27-MP04G01 VHH (periplasmic extract) (VHH)
VHH: QVQLVESGGGLVQAGGSLTLSCAAPGRTFGTDVVGWFRQAPGKEREFVASISRSGDGIYYDDSVKGRFTISRNNAWNTVNLQMNSLKVEDTAVYYCAAGDGWSTYDYWGQGTQVTVSS
notes: as for B1
B18: 27-MP04G01 VHH-hFc, monospecific bivalent (Fc fusion)
chain: QVQLVESGGGLVQAGGSLTLSCAAPGRTFGTDVVGWFRQAPGKEREFVASISRSGDGIYYDDSVKGRFTISRNNAWNTVNLQMNSLKVEDTAVYYCAAGDGWSTYDYWGQGTQVTVSS
notes: as for B3

Columns and labels:
[1] = molecular target: T1, mouse IL-2Rγ, recombinant protein; experiment: P.E. off-rate SPR
Summary of the method: (§1)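 CM5 chip, amine coupling (acetate buffer), ~2500 RU receptor. VHH P.E. flowed at 30 uL/min; off-rate read over 120 s.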

[2] = molecular target: T1, mouse IL-2Rγ, recombinant protein; experiment: P.E. binding ELISA
Summary of the method: (§2)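 Plates were coated overnight at 4° C with human or mouse IL-2R chain protein, and free sites blocked for 1 hour in 4% Marvel in PBS. Periplasmic extracts diluted 1:5 in 1% Marvel/PBS then bound for 1 hour, with specificity assessed from 450 nm absorbance relative to negative controls.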

[3] = molecular target: T2, human common cytokine receptor γ-chain …; experiment: P.E. off-rate SPR
Summary of the method: as §1

[4] = molecular target: T2, human common cytokine receptor γ-chain …; experiment: P.E. binding ELISA
Summary of the method: as §2

[5] = molecular target: T3, cynomolgus monkey IL-2Rγ/CD132 subunit; experiment: ELISA, bivalent VHH-hFc
Procedure: (§3) Monospecific monovalent and bivalent IL-2Rα-, IL-2Rβ- and IL-2Rγ-specific antibodies that were selected on human IL-2R subunits, were evaluated for their cross-reactivity in an ELISA. Human and cynomolgus monkey receptor subunits (Acrobiosystems, KactusBiosystems) were coated at 1 μg/mL in PBS (pH 7.4) in a Maxisorp plate (Nunc) and incubated overnight at 4° C. The plates were further washed with PBS-Tween pH 7.4 and incubated with 1% cascin/PBS-Tween blocking solution for 1 hour shaking at 400 rpm. Subsequently, the plate was washed three times with PBS-Tween pH 7.4, after which the test antibodies diluted in 0.1% casein/PBS-Tween were added to the plate and incubated for 1 hour. The plate was again washed three times, after which goat anti-human IgG Fc (HRP) detection antibody (abcam) was added to the plate and incubated for 30 min. The colouring reaction was performed with TMB (Sigma-Aldrich) and stopped with 0.5N H₂SO₄.
(§4) Absorbance was measured at 450 nm with the reference wavelength of 620 nm using spectrophotometer. Final analysis and graphic output were performed with GraphPad Prism version 8 (GraphPad Software). The dose-response binding curves were fit to a nonlinear regression model (log (agonist) vs. response with a variable slope (four parameters)).

[6] = molecular target: T2, human common cytokine receptor γ-chain …; experiment: ELISA, bivalent VHH-hFc
Procedure: as §3, §4

[7] = molecular target: T3, cynomolgus monkey IL-2Rγ/CD132 subunit; experiment: ELISA, bivalent; EC50 cyno vs human subunit
Procedure: as §3, §4

Binder | koff [3] [s⁻¹] | OD450 nm [4] [OD450 nm] | EC50 [6] [nM] | EC50 [5] [nM] | Fold change [7] [fold] | also measured
B1 |  |  |  |  |  | koff [1]: 0.283 s⁻¹; OD450 nm [2]: 0.495 OD450 nm
B2 | 0.0616 | 0.407 |  |  |  | 
B3 |  |  | 0.14 |  |  | binding result [5]: no binding
B4 | 0.00625 | 0.157 |  |  |  | 
B5 |  |  | 0.179 | 0.26 | 1.4 | 
B6 |  |  |  |  |  | binding result [5]: no binding; binding result [6]: no binding
B7 | 0.00331 | 0.896 |  |  |  | 
B8 |  |  | 0.117 | 0.121 | 1 | 
B9 | 0.00126 | 1.81 |  |  |  | koff [1]: 0.007 s⁻¹; OD450 nm [2]: 1.49 OD450 nm
B10 |  |  | 0.137 | 0.141 | 1 | 
B11 | 0.0088 | 0.782 |  |  |  | koff [1]: 0.319 s⁻¹; OD450 nm [2]: 0.054 OD450 nm
B12 |  |  | 0.117 | 0.112 | 1 | 
B13 | 0.000333 | 1.3 |  |  |  | koff [1]: 0.00809 s⁻¹; OD450 nm [2]: 3.6 OD450 nm
B14 |  |  | 0.113 | 0.133 | 1.2 | 
B15 |  |  | 0.107 | 0.113 | 1.1 | 
B16 | 0.00235 | 1.31 |  |  |  | koff [1]: 0.0149 s⁻¹; OD450 nm [2]: 0.173 OD450 nm
B17 | 0.00131 | 0.362 |  |  |  | 
B18 |  |  | 0.131 | 0.147 | 1.1 | 

From US20240409645A1 (DUALYX, published 2024)
